Reference: patent US20060286636A1

Key:
[1] = target: mouse VEGFR-2/Fc chimeric receptor (mouse) (UniProt P35918); assay: competition plate binding assay: cold competitor against 125I-VEGF165 on immobilized VEGFR-2 (KDR)/Fc, scintillation counting
[2] = target: mouse VEGFR-1/Fc chimeric receptor (mouse) (UniProt P35969); assay: competition plate binding assay: cold competitor against 125I-VEGF165 on immobilized VEGFR-1 (Flt-1)/Fc, scintillation counting
[3] = target: rat Neuropilin-1/Fc chimeric receptor (rat) (UniProt Q9QWJ9); assay: competition plate binding assay, cold competitor against 125I-VEGF165 on immobilized rat neuropilin-1/Fc, without heparin
rat Neuropilin-1/Fc chimeric receptor (rat), sequence (Q9QWJ9 22-854, stated change not applied): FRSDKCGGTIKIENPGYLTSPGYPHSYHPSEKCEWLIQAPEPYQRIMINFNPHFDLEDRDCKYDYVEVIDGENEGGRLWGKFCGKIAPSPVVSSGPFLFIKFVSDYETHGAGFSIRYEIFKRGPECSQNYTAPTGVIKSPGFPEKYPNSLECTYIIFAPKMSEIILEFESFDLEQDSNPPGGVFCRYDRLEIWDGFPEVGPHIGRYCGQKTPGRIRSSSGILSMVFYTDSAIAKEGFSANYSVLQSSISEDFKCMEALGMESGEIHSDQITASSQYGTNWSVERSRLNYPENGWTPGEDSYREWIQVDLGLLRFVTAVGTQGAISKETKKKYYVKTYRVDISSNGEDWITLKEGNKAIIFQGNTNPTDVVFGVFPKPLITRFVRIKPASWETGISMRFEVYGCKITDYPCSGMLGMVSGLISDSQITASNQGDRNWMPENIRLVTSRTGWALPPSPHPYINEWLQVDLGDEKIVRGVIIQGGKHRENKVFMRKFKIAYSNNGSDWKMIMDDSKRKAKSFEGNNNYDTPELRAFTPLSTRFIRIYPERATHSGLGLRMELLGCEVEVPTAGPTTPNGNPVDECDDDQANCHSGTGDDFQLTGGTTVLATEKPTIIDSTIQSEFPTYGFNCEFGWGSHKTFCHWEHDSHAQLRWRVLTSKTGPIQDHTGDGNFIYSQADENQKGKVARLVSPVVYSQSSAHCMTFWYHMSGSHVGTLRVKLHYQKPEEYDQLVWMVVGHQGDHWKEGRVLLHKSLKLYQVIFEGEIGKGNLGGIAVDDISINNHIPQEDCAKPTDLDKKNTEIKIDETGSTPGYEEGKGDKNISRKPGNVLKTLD

mouse VEGFR-2/Fc chimeric receptor (mouse), sequence (P35918 20-762, stated change not applied): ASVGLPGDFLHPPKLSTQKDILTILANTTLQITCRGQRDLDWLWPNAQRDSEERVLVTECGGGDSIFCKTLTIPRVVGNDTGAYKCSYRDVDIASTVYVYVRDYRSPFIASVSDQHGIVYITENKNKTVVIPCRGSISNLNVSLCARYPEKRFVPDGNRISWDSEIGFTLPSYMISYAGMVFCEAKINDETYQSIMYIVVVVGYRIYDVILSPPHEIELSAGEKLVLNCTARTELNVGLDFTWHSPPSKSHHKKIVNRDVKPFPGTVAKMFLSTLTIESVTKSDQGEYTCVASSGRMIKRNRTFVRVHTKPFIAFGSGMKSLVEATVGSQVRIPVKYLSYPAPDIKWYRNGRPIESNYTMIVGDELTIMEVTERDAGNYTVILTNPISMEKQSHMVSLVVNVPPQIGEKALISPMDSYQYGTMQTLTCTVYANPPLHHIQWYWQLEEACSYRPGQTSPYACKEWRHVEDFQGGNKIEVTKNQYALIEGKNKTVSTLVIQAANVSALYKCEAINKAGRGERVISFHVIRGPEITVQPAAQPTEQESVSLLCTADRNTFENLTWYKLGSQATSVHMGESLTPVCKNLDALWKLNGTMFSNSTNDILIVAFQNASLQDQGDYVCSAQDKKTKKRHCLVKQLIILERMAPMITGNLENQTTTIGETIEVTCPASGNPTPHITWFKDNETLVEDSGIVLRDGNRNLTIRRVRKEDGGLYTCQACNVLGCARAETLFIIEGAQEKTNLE
mouse VEGFR-1/Fc chimeric receptor (mouse), sequence (P35969 23-759, stated change not applied): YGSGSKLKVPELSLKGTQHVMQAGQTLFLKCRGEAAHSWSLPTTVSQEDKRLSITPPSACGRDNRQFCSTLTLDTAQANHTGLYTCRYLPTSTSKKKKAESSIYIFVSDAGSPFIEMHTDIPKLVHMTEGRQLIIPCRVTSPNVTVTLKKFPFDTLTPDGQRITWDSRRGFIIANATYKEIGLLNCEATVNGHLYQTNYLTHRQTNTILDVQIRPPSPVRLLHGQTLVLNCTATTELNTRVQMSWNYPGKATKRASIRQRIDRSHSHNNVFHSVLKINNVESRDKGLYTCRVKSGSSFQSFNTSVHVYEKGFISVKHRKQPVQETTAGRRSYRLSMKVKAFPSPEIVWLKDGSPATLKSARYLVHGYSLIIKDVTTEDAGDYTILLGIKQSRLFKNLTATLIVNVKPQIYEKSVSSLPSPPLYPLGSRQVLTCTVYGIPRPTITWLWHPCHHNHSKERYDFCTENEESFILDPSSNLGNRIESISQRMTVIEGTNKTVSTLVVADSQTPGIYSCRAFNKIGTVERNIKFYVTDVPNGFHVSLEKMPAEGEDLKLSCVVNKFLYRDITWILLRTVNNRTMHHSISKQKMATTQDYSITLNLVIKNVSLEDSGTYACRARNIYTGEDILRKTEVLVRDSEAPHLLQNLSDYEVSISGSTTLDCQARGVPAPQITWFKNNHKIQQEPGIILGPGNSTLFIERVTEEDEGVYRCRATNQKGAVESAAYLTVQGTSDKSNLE

Row | IC50 (read off the curve) [1] [nM] | IC50 (read off the curve) [2] [nM] | fold reduction of binding affinity compared to VEGF164 [3] [fold] | Substance
1 | 0.08 | 0.2 | – | VEGF164 triple mutant R13A/R14A/R49A (from UniProt P15692 207-395) (ligand)
2 | – | – | 115 | VEGF164 mutant R13A/R14A/R46A/R49A (from UniProt Q00731 27-190) (ligand)
3 | 0.08 | 0.09 | – | VEGF164 double mutant R14A/R49A (from UniProt P15692 207-395) (ligand)
